Assays:
Conditions in all cases: remark: other sources report otherwise
[1] = target: T1, SNAP-tagged FUS (Fused in sarcoma), P35637; experiment: nanoparticle tracking analysis (NTA); mesoscale clusters in sub-saturated solutions; 100 mM KGlu and 100 mM KCl, 25 °C, recorded 6 minutes after sample preparation
T1 chain: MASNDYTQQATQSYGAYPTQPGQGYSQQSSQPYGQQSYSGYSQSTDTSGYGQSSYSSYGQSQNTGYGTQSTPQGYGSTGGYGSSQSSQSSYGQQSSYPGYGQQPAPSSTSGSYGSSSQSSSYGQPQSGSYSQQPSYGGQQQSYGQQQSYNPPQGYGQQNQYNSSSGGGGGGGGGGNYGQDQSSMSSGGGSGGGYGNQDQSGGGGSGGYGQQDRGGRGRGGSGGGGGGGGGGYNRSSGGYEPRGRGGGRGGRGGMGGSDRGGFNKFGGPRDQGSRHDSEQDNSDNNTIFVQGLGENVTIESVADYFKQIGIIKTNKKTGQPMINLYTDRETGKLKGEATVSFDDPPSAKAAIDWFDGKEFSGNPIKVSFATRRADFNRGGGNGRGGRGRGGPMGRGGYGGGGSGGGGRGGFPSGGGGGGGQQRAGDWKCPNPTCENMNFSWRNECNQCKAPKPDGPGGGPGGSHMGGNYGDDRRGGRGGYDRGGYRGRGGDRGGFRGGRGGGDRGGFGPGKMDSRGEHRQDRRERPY

[2] = target: T1, SNAP-tagged FUS (Fused in sarcoma), …; experiment: dynamic light scattering (DLS); derived count rate and size distributions in sub-saturated solutions; 20 mM Tris.Glu pH 7.4, 100 mM KGlu (with residual KCl from the stock), 25 °C; self-association into clusters
[3] = target: T2, untagged FUS (Fused in sarcoma), P35637; experiment: nanoparticle tracking analysis (NTA); mesoscale clusters in sub-saturated solutions; 100 mM KGlu and 100 mM KCl, 25 °C, recorded 6 minutes after sample preparation
T2 chain: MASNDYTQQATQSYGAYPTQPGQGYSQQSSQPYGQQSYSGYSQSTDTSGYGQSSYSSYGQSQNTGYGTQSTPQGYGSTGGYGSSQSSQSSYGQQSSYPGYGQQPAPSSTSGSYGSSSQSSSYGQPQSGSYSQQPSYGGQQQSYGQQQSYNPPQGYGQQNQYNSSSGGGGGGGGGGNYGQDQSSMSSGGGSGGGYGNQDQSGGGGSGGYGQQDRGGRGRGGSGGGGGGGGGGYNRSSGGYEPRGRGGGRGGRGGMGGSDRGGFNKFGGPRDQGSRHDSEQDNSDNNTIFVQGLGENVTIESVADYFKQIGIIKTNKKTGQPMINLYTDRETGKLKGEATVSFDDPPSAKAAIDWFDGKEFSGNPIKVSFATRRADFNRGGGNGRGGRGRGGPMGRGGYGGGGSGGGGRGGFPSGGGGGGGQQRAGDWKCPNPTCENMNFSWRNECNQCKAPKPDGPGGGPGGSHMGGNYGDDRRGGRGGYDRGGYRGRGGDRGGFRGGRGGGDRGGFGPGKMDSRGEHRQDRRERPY

B1: SNAP-tagged FUS (Fused in sarcoma), P35637 1-526 (natural protein)
chain: MASNDYTQQATQSYGAYPTQPGQGYSQQSSQPYGQQSYSGYSQSTDTSGYGQSSYSSYGQSQNTGYGTQSTPQGYGSTGGYGSSQSSQSSYGQQSSYPGYGQQPAPSSTSGSYGSSSQSSSYGQPQSGSYSQQPSYGGQQQSYGQQQSYNPPQGYGQQNQYNSSSGGGGGGGGGGNYGQDQSSMSSGGGSGGGYGNQDQSGGGGSGGYGQQDRGGRGRGGSGGGGGGGGGGYNRSSGGYEPRGRGGGRGGRGGMGGSDRGGFNKFGGPRDQGSRHDSEQDNSDNNTIFVQGLGENVTIESVADYFKQIGIIKTNKKTGQPMINLYTDRETGKLKGEATVSFDDPPSAKAAIDWFDGKEFSGNPIKVSFATRRADFNRGGGNGRGGRGRGGPMGRGGYGGGGSGGGGRGGFPSGGGGGGGQQRAGDWKCPNPTCENMNFSWRNECNQCKAPKPDGPGGGPGGSHMGGNYGDDRRGGRGGYDRGGYRGRGGDRGGFRGGRGGGDRGGFGPGKMDSRGEHRQDRRERPY
modifications: here or on the partner: Alexa 488 (AF488) or Alexa 647 (AF647) label in the smFRET and FCS experiments; unlabelled elsewhere; Alexa 488 (AF488) or Alexa 647 (AF647) label in the smFRET and FCS experiments; unlabelled elsewhere
Which results are given for B1?
abundance of mesoscale clusters in 100 mM KGlu relative to 100 mM KCl [1]: 4 fold; derived count rate in 100 mM KGlu relative to 100 mM KCl [2]: < 3 fold

B2: untagged FUS (Fused in sarcoma), P35637 1-526 (natural protein)
chain: MASNDYTQQATQSYGAYPTQPGQGYSQQSSQPYGQQSYSGYSQSTDTSGYGQSSYSSYGQSQNTGYGTQSTPQGYGSTGGYGSSQSSQSSYGQQSSYPGYGQQPAPSSTSGSYGSSSQSSSYGQPQSGSYSQQPSYGGQQQSYGQQQSYNPPQGYGQQNQYNSSSGGGGGGGGGGNYGQDQSSMSSGGGSGGGYGNQDQSGGGGSGGYGQQDRGGRGRGGSGGGGGGGGGGYNRSSGGYEPRGRGGGRGGRGGMGGSDRGGFNKFGGPRDQGSRHDSEQDNSDNNTIFVQGLGENVTIESVADYFKQIGIIKTNKKTGQPMINLYTDRETGKLKGEATVSFDDPPSAKAAIDWFDGKEFSGNPIKVSFATRRADFNRGGGNGRGGRGRGGPMGRGGYGGGGSGGGGRGGFPSGGGGGGGQQRAGDWKCPNPTCENMNFSWRNECNQCKAPKPDGPGGGPGGSHMGGNYGDDRRGGRGGYDRGGYRGRGGDRGGFRGGRGGGDRGGFGPGKMDSRGEHRQDRRERPY
With B2 as the binder, how does the abundance of mesoscale clusters in 100 mM KGlu relative to 100 mM KCl [3] read?
Its abundance of mesoscale clusters in 100 mM KGlu relative to 100 mM KCl is 4 fold.
